target: CBF-A (hnRNP A/B), p37 isoform (UniProt Q99020 1-285); test: EMSA
Sequence (Q99020 whole entry, canonical isoform): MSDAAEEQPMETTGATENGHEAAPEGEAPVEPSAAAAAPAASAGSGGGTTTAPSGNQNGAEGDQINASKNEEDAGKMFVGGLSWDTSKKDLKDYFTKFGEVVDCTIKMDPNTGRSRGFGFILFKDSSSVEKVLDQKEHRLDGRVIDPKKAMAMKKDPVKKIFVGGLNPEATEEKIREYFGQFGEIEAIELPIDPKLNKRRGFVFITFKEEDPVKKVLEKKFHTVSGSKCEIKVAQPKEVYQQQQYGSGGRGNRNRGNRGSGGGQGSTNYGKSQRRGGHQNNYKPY

Binder | binding result
GCUGAGGAGGAGGAGAUCAUU (ssRNA) [Arc wtRTS] | binds
AUGGACCCAAUGAGAACUAGU (ssRNA) [BDNF wtRTS] | binds
AACGCCAGUGAGCCAGGAACU (ssRNA) [CaMKIIα wtRTS] | binds
